From patent publication US20080280834A1, “Compounds and methods for inhibiting apoptosis” (University of Pittsburgh of the Commonwealth System of …, priority 2005, published 2008)
Read-outs that look alike come from different tables or passages of the source. Residues, ends and D or L forms follow the SMILES beside them. No end group written: not given here.

What was measured:
FasR = target: T1, FasR (Homo sapiens, UniProt P25445); experiment: ELISA binding of peptides to FasR (association constant); settings: for Ka (M^−1), Elongated Peptide Sequences: Table 7, peptides based on the α-Met sequence, Fas receptor; for Ka(M^−1), Measured Association Constants (Ka) for YLGA and YLXA Substituted Peptides / Ka(M^−1), Measured Association Constants (Ka) YLGA and YXGA Substituted Proteins / Ka(M^−1), Measured Association Constants (Ka) for YLGA to XLGA Substituted Peptides / Ka(M − 1), Measured Association Constants (Ka) for YLGA and YLGX Substituted Peptides: ELISA; for Ka(M^−1), Measured Association Constants (Ka) for YLGA and YLXA Substituted Peptides / Ka(M^−1), Measured Association Constants (Ka) YLGA and YXGA Substituted Proteins / Ka(M − 1), Measured Association Constants (Ka) for YLGA and YLGX Substituted Peptides: 1 nM to 1 μM; for Ka(M^−1), Measured Association Constants (Ka) for YLGA and YLXA Substituted Peptides: third residue varied; for Ka(M^−1), Measured Association Constants (Ka) YLGA and YXGA Substituted Proteins: second residue varied; for Ka(M^−1), Measured Association Constants (Ka) for YLGA to XLGA Substituted Peptides: concentration range 1 nM to 1 μM, first residue varied; for Ka(M − 1), Measured Association Constants (Ka) for YLGA and YLGX Substituted Peptides: fourth residue varied
T1 construct: Fc (IgG Fc fusion partner); purchased R&D Systems 326-FS-050
T1 sequence (P25445 with tags, fused parts or gaps limits assumed): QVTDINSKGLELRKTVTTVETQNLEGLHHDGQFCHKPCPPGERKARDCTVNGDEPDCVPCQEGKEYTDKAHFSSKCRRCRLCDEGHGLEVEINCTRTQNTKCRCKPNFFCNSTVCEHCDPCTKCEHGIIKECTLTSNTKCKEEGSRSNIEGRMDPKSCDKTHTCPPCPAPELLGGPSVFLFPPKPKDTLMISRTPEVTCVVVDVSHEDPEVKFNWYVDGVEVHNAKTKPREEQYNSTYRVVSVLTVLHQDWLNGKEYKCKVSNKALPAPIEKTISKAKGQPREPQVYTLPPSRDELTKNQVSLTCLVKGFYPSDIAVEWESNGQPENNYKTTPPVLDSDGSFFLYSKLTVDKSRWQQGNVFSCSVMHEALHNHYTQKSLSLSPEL
Excerpt: (§1) Cell Lines, Chemicals, Antibodies & Proteins. Recombinant Human Fas/TNFRSF6/Fc Chimera (cat no. 326-FS-050), Human Fas Ligand/TNFSF6 (cat. No. 126-FL), Anti-human Fas TNFRSF6 Polyclonal Antibody (cat. no. AF326) and Anti-6×Histidine Cross-Linking Ab (cat no. MAB050) were purchased from R&D Systems. Anti-human, IgM-HRP (cat. no. AP320P) was purchased from Chemicon International. Phosphate buffered saline (cat. no. P3563), sodium azide (cat. no. 71289) and 3,3′,5,5′-Tetramethylbenzidine (TMB) Liquid Substrate System for ELISA (cat. no. T0440) were purchased from Sigma-Aldrich. Cliniplate 96-well microplates w/enhanced binding (cat. no. 28298-604) were purchased from VWR. Costar, 96-well, cell culture assay plates (cat. no. 3632) were ordered from Corning Incorporated. Jurkat cells (ATCC no. CRL-1990) and L929 (ATCC no. CRL-2148) were purchased from ATCC and were propagated in RPMI 1640 medium with 2 mM L-glutamine, adjusted to contain 1.5 g/L sodium bicarbonate, 4.5 g/L glucose, 10 mM HEPES, and 1 mM sodium pyruvate, 90%; 10% fetal bovine serum. CellTiter Blue Cell Viability Assay (cat. no. TB317) was purchased from Promega.
ELISA. Peptides were dissolved in a coating buffer solution (0.05M Sodium Carbonate, 0.02% Sodium Azide, pH=9.6) at the appropriate concentrations to a final concentration of 10 μM. Dilutions were made accordingly to reach desired experimental concentrations. 100 μl aliquots of the peptide solution was added to each well and incubated for 2 hours. All incubations were carried out with shaking at T=37° C. Wells were washed by pipetting solution out of each well, adding 200 μL of washing solution (PBS-Tween; 0.5%), shaking for 15 minutes and emptying each well. Three wash cycles were carried out prior to addition of 200 μL of blocking solution (1% BSA in PBS buffer) to each well followed by incubation for 2 hours. Wells were then washed (as per above procedure) three times. Protein solutions of the appropriate concentrations (Vsolution 50 μL) were then added and incubated for 2 hours. After washing three times (as per above protocol) Fas specific antibody solution (˜1:20,000) was added to each well in 100 μL aliquots and incubated for 1 hour. After washing three times (as per above protocol) IgM-HRP solution (˜1:20,000) was added to each well in 100 μL aliquots and incubated (with shaking) for 1 hour at T=37° C. Wells were washed three times prior to the addition of ready-to-use TMD, followed by incubation for 30 minutes. 2M H2SO4 (3 drops) was added to stop colorimetric reaction and the absorption was taken at 450 nm on a Perkin-Elmer, Victor3 Model automated plate reader. Data was analyzed using standard regression fits in Excel.
Effect of Amino Acid Substitution on Binding Affinities. The binding affinity of each tetrapeptide was determined by standard ELISA with a concentration range of 1 nM to 1 μM. In the first series of peptides, alterations were made only to the tyrosine residue while retaining the final three amino acids homologous in the parent sequence (LGA).

Jurkat cells = type: cell-based, human; settings: for EC50 (nM): Table 5, Jurkat cells, peptide then recombinant FasL, cell viability
Excerpt: as §1
Apoptosis Assay. […] Control reactions were diluted with sterile PBS buffer to final volume of 200 μL per well. Peptide solutions (in PBS buffer, pH=7.3) were added in appropriate volumes to reach the desired concentrations in each well given a total volume of 200 μL per well. Apoptosis was induced by the addition of cross-linked human FasL at a concentration of 0.5 ng/ml. Plates were then incubated under sterile conditions, with shaking in a Kendro, model Hera Cell 150 incubator at T=37° C., % CO2=5 for 3 hours. A Cell Titer Blue Cell Viability Assay kit was used (as per accompanying protocol) to determine % apoptosis in cells. Fluorescence readings (560/590 nm) were taken after 4 hours under above cited incubation conditions on a Perkin-Elmer, Victor3 Model automated plate reader. Data was analyzed using standard regression fits in Excel.
Correlating the In-vitro Binding Assays with Cellular Activity. FasL activated apoptosis is known to occur by binding of the ligand to the receptor thereby initiating a series of signaling events leading to caspase production and subsequent cell death. If the YLGA (SEQ ID NO:1) motif isolated in both the α-Met and FasL proteins, is indeed the primary sequence responsible for binding to FasR then at a given concentration, peptides of sufficient Ka values should preferably bind to the receptor. This in turn would block the binding site from FasL and inhibiting cell death in the presence of both peptide and FasL. In order to examine this possibility, Jurkat cells (known to upregulate the Fas receptor) were treated with varying concentrations of peptide and then exposed to recombinant FasL.

TNFR1 = target: T2, TNFR1 (Mus musculus, UniProt P25118); experiment: Inhibition of the TNFR / TNFR1 pathway (EC50); type: cell-based; settings: Table 8
T2 sequence (P25118 30-454): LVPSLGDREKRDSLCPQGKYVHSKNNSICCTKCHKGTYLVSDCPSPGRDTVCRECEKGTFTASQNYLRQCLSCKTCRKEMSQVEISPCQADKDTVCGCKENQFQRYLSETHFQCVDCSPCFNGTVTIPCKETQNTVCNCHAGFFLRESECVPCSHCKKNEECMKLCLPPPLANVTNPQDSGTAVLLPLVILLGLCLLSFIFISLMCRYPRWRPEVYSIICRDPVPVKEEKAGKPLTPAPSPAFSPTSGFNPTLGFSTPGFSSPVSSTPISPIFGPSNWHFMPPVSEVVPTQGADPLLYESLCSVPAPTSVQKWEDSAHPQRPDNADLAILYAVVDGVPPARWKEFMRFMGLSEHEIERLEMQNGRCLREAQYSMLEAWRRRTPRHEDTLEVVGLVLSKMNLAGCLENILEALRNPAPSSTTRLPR
Excerpt: This correlation implies a peptide-protein interaction mechanism, wherein whereby tightly bound peptides are capable of blocking FasL association with the receptor and as such, inhibit FasL induced apoptosis.

In the case of HHIYLGATN [HHI YLG ATN], the “Ka (M^−1), Elongated Peptide Sequences” value (FasR) is reported as 3e+08 M⁻¹.
HHIYLGAT [HHI YLG AT] was tested, and the “Ka (M^−1), Elongated Peptide Sequences” value (FasR) was 3e+08 M⁻¹.
For YldAA, the “Ka(M^−1), Measured Association Constants (Ka) for YLGA and YLXA Substituted Peptides” value (FasR) was “no binding observed”.
With YTGA [tetrapeptide] the “Ka(M^−1), Measured Association Constants (Ka) YLGA and YXGA Substituted Proteins” value (FasR) was “no binding”.
“LGA [LGA (trimer), Y-free trimer peptide]” was tested, and the “EC50 (nM)” value (Jurkat cells) was “no inhibition”.
In the case of HHIYLGATNYI [HHI YLG ATN YI], the “Ka (M^−1), Elongated Peptide Sequences” value (FasR) is reported as 3e+08 M⁻¹.
For CC(C)C[C@H](NC(=O)[C@@H](N)CC(C)C)C(=O)NCC(=O)N[C@@H](C)C(N)=O [LLGA] (H-LLGA-NH2), the EC50 (Jurkat cells) was 93 nM.
For GLGA [tetrapeptide], the “Ka(M^−1), Measured Association Constants (Ka) for YLGA to XLGA Substituted Peptides” value (FasR) was “no binding”.
In the case of ALGA [tetrapeptide], the “Ka(M^−1), Measured Association Constants (Ka) for YLGA to XLGA Substituted Peptides” value (FasR) is reported as “no binding”.
For TLGA [tetrapeptide], the “Ka(M^−1), Measured Association Constants (Ka) for YLGA to XLGA Substituted Peptides” value (FasR) was 2e+08 M⁻¹.
IYLGATNYIY [I YLG ATN YIY] was tested, and the “Ka (M^−1), Elongated Peptide Sequences” value (FasR) was 3e+08 M⁻¹.
For CC(C)C[C@H](NC(=O)[C@@H](N)CO)C(=O)NCC(=O)N[C@@H](C)C(N)=O [SLGA] (H-SLGA-NH2), the EC50 (Jurkat cells) was 6 nM.
For YLGL [tetrapeptide], the “Ka(M − 1), Measured Association Constants (Ka) for YLGA and YLGX Substituted Peptides” value (FasR) was 3 × 10^7 M − 1.
In the case of YFGA [tetrapeptide], the “Ka(M^−1), Measured Association Constants (Ka) YLGA and YXGA Substituted Proteins” value (FasR) is reported as “no binding”.
With HHIYLGA [HHI YLG A] the “Ka (M^−1), Elongated Peptide Sequences” value (FasR) was 3e+08 M⁻¹.
For YVGA, the “Ka(M^−1), Measured Association Constants (Ka) YLGA and YXGA Substituted Proteins” value (FasR) was 2e+08 M⁻¹.
RSSYLGA [RSSYLGA] was tested, and the EC50 (Jurkat cells; Table 8, read-out: Fas EC50) was 3.28 nM and the “TNFR1 EC50” value (TNFR1) was “no inhibition”.
With YLAA [tetrapeptide] the “Ka(M^−1), Measured Association Constants (Ka) for YLGA and YLXA Substituted Peptides” value (FasR) was 1e+06 M⁻¹ and the “EC50 (nM)” value (Jurkat cells) was “no inhibition”.
With ELGA [tetrapeptide] the “Ka(M^−1), Measured Association Constants (Ka) for YLGA to XLGA Substituted Peptides” value (FasR) was 5e+07 M⁻¹.
Molecule C[C@H](NC(=O)CNC(=O)[C@H](C)NC(=O)[C@@H](N)Cc1ccc(O)cc1)C(N)=O [YAGA] (H-YAGA-NH2) has an EC50 (Jurkat cells) of 6 nM.
For RSSYLGAVF-NH2 [RSSYLGAVF], the “TNFR1 EC50” value (TNFR1) was “no inhibition”.
With ILGA [tetrapeptide] the “Ka(M^−1), Measured Association Constants (Ka) for YLGA to XLGA Substituted Peptides” value (FasR) was 9e+06 M⁻¹.
In the case of YLGI [tetrapeptide], the “Ka(M − 1), Measured Association Constants (Ka) for YLGA and YLGX Substituted Peptides” value (FasR) is reported as 3 × 10^7 M − 1.
For HHIYLGATNYIY [HHI YLG ATN YIY], the “Ka (M^−1), Elongated Peptide Sequences” value (FasR) was 3e+08 M⁻¹.
HIYLGATNYIY [HI YLG ATN YIY] was tested, and the “Ka (M^−1), Elongated Peptide Sequences” value (FasR) was 3e+08 M⁻¹.
YIGA was tested, and the “Ka(M^−1), Measured Association Constants (Ka) YLGA and YXGA Substituted Proteins” value (FasR) was 2e+08 M⁻¹.
In the case of DLGA [tetrapeptide], the “Ka(M^−1), Measured Association Constants (Ka) for YLGA to XLGA Substituted Peptides” value (FasR) is reported as 5e+07 M⁻¹.
With YLGATNYIY [YLG ATN YIY] the “Ka (M^−1), Elongated Peptide Sequences” value (FasR) was 3e+08 M⁻¹.
YLGT [tetrapeptide] was tested, and the “Ka(M − 1), Measured Association Constants (Ka) for YLGA and YLGX Substituted Peptides” value (FasR) was “no binding observed”.
In the case of YGGA [tetrapeptide], the “Ka(M^−1), Measured Association Constants (Ka) YLGA and YXGA Substituted Proteins” value (FasR) is reported as 1e+07 M⁻¹ and the “decrease in measured Ka” value (FasR; relative to parent YLGA) is reported as 20 fold.
For KLGA [tetrapeptide], the “Ka(M^−1), Measured Association Constants (Ka) for YLGA to XLGA Substituted Peptides” value (FasR) was 8e+06 M⁻¹.
For YLIA [tetrapeptide], the “Ka(M^−1), Measured Association Constants (Ka) for YLGA and YLXA Substituted Peptides” value (FasR) was “no binding observed”.
In the case of HHIYLGATNY [HHI YLG ATN Y], the “Ka (M^−1), Elongated Peptide Sequences” value (FasR) is reported as 3e+08 M⁻¹.
YLLA [tetrapeptide] was tested, and the “Ka(M^−1), Measured Association Constants (Ka) for YLGA and YLXA Substituted Peptides” value (FasR) was 1e+06 M⁻¹.
